# Source: patent US20240374685A1, “METHODS OF TREATING LOCALLY ADVANCED OR METASTATIC PANCREATIC ADENOCARCINOMA USING AXL DECOY RECEPTORS AS FIRST-LINE THERAPY” (Aravive Inc, priority 2021, published 2024)
# Experiments:
# [1] = system: metastatic pancreatic adenocarcinoma; conditions: cited from earlier work
# healthy volunteers = experiment: First-in-human Phase 1 single ascending dose and repeat-dose study; format: in vivo
# Method: Single dose cohorts of 1, 2.5, 5, and 10 mg/kg were evaluated as well as 1 RD cohort dosed with 5 mg/kg once weekly for 4 weeks.
# aggressive human cancers [2] = conditions: cited from earlier work
# mouse = experiment: 3-month mouse toxicity study; format: in vivo
# Method: There were no clinical observations, no changes in urinalysis parameters, no ophthalmology signs, and no macroscopic or microscopic observations of significance related to the administration of AVB-S6-500 at doses up to the NOAEL of 200 mg/kg/week.
# aggressive human cancers [3] = experiment: Preclinical (nonclinical) tumor models; format: in vivo, mouse
# [4] = Pharmacokinetics in the cynomolgus monkey; format: in vivo; conditions: IV
# Description: The pharmacokinetics (PK) and toxicokinetics of AVB-S6-500 and pharmacodynamics (PD) of growth arrest specific-6 protein (GAS6) have been investigated in mice (intraperitoneal [IP] and intravenous [IV] routes) and monkeys (IV route) following single and repeat dosing. The PK profile of AVB-S6-500 is compatible with target-mediated drug disposition (TMDD) with 2 parallel elimination paths: normal clearance of IgG and second order that is saturable and fits the typical 2-compartment model. […] Using the TMDD model (Dirks, N. A., Clinical Pharmacokinetics, 633-659, 2010), the human dose estimated to be efficacious may range from 1 mg/kg (to ensure GAS6 levels remain at least 90% less than baseline) to 20 mg/kg (to ensure 99% abrogation of GAS6 and allowing for a 3-fold increase in GAS6 levels in patients with cancer relative to normal levels). This model was used to select first-in-human dosing, and an external validation showing good agreement between projections and clinical observations has been published (Bonifacio, L., Clinical and Translational Science, 1-8, 2019).
# [5] = system: platinum-resistant, recurrent ovarian cancer; experiment: Ph1b trial in platinum-resistant, recurrent ovarian cancer; format: in vivo, human
# Method: AVB-S6-500 was evaluated in a Ph1b trial in combination with either paclitaxel or pegylated liposomal doxorubicin in subjects with platinum-resistant, recurrent ovarian cancer. Fifty-three subjects were dosed with AVB-S6-500 at doses ranging from 10 to 20 mg/kg once every 2 weeks in combination with their physician-chosen chemotherapy. […] All infusion reactions have been Grade 1 or 2, none met serious criteria, and all resolved without sequelae.
# monkey = experiment: 3-month monkey toxicity study; format: in vivo
# GAS6 = target: T1, GAS6 (Homo sapiens, UniProt Q14393); experiment: Binding affinity to GAS6
# T1 sequence (Q14393 31-678): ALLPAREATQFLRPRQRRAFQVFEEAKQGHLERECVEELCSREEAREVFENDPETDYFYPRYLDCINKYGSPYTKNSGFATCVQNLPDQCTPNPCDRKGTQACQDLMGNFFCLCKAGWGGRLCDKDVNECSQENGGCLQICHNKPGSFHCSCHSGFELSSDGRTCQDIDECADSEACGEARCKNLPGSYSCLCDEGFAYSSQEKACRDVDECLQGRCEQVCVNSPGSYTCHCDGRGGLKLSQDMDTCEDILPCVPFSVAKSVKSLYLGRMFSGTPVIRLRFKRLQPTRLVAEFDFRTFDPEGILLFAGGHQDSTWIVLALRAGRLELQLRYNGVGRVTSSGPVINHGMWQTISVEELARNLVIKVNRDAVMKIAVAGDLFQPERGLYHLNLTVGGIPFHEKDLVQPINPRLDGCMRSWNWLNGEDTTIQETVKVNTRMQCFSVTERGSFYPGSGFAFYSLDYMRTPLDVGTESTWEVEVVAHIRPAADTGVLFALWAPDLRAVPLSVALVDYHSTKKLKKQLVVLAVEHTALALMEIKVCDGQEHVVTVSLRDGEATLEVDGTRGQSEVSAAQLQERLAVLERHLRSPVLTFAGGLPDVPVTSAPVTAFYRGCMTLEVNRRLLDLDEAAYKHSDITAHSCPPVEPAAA
# highly metastatic cells = experiment: AXL signaled invasion and migration in vitro; format: cell-based
# [6] = system: pancreatic (PDA1-1) models; experiment: Pancreatic mouse models; format: in vivo
# [7] = system: locally advanced, recurrent, or metastatic 1L pancreatic adenocarcinoma; experiment: Phase 1b study of AVB-S6-500 plus nab-paclitaxel and gemcitabine
# Method: The AVB-S6-500 volume is adjusted according to the subject's weight and diluted prior to infusion.
# On days when all three drugs are administered, the sequence of administration is AVB-S6-500 infusion first followed by at least a 30-minute observation period, then nab-paclitaxel immediately followed by gemcitabine. AVB-S6-500 (15 mg/kg) will be administered by a 1-hour IV infusion on Days 1 and 15 of each 28-day cycle. Subjects will receive premedication with anti-H1 antagonists (anti-H1) and anti-H2 antagonists (anti-H2) (steroids optional) prior to administration of AVB-S6-500 to reduce the risk and severity of infusion reactions. Nab-paclitaxel (125 mg/m2) will be administered by a 30-40-minute IV infusion on Days 1, 8, and 15 of each 28-day cycle. Immediately following nab-paclitaxel, gemcitabine (1000 mg/m2) will be administered by a 30-minute IV infusion on Days 1, 8, and 15 of each 28-day cycle. Appropriate premedication with corticosteroids, diphenhydramine, and H2 antagonists (as per institutional practice, with IV antihistamines and steroids strongly recommended) should be administered prior to administration of nab-paclitaxel and gemcitabine.
# The Ph1b portion of this study is a multicenter, open-label, single treatment arm group design to evaluate the safety, tolerability, and preliminary efficacy of AVB-S6-500 in combination with nab-paclitaxel and gemcitabine in subjects with locally advanced, recurrent, or metastatic 1L pancreatic adenocarcinoma.
# [8] = clinical data from prior studies of AVB-S6-500
# [9] = number of the 5 subjects at 15 mg/kg, with chemotherapy
compound,measurement,setting,value
Nc1ccn([C@@H]2O[C@H](CO)[C@@H](O)C2(F)F)c(=O)n1 [gemcitabine],OS,[1]; 861 subjects randomized,6.7 months
same,Sepsis,[1]; all grades,2%
same,Fatal events,[1]; in vivo,4%
same,median progression-free survival,[1]; in vivo,3.7 months
same,pneumonitis,[1]; in vivo,1%
same,proportion of patients with SAEs,[1]; in vivo,43%
same,response rate according to independent review,[1]; in vivo,7%
"AVB-S6-500: soluble AXL variant polypeptide fusion protein comprising an Fc domain, a linker, lacks a functional FN domain, SEQ ID NO: 2",maximum tolerated dose (MTD),"healthy volunteers; human, in vivo",not reached
same,dose related AEs or SAEs,healthy volunteers; in vivo,no dose related AEs or SAEs
same,tolerability,"healthy volunteers; single 1, 2.5, 5, 10 mg/kg, 5 mg/kg weekly for 4 weeks, IV over 60 minutes",well tolerated at all doses
same,toxicity in pharmacology studies,"aggressive human cancers [2]; mouse, in vivo",no toxicity
same,antitumor efficacy compared with other anti-AXL small molecules in clinical development,aggressive human cancers [2]; nonclinical models,superior antitumor efficacy
same,mortalities,"mouse; mouse, in vivo",no mortalities
same,NOAEL,mouse; twice-weekly slow bolus IV infusion,200 mg/kg/week
same,no-observed-adverse-effect-level (NOAEL),"mouse; twice-weekly slow bolus IV infusion, 25, 50, 100 mg/kg",at least 100 mg/kg/dose
same,effect on tumor cells in vivo,"aggressive human cancers [3]; dosing 4-7 days after tumor inoculation, small tumors established in the mouse",regression of tumor cells
same,metastatic disease,aggressive human cancers [3]; preclinical models of aggressive human cancers,inhibiting metastatic disease
same,clearance,[4]; doses above 5 mg/kg,lower
same,half-life,[4]; doses above 5 mg/kg,longer
same,volume of distribution,[4]; doses above 5 mg/kg,larger
same,clearance,[4]; doses below 5 mg/kg,high
same,half-life,[4]; doses below 5 mg/kg,short
same,dose-limiting toxicities,"[5]; 10 to 20 mg/kg every 2 weeks with paclitaxel or pegylated liposomal doxorubicin, 53 subjects",No dose-limiting toxicities were observed
same,grade of infusion reactions,[5]; all infusion reactions,Grade 1 or 2
same,"toxicity, anemia",[5]; [8],21%
same,"toxicity, fatigue",[5]; [8],26%
same,"toxicity, infusion reaction",[5]; [8],21%
same,"toxicity, nausea",[5]; [8],13%
same,complete response (CR),[5]; [9],1
same,partial responses (PRs),[5]; [9],2
same,direct cytotoxicity,tumor cells,not directly cytotoxic
same,clinical pathology changes,"monkey; monkey, in vivo",non-dose-dependent clinical pathology changes seen and those were consistent with an immune response in monkeys to the human AVB-S6-500 protein
same,mortalities,"monkey; monkey, in vivo",no mortalities
same,NOAEL,"monkey; once-weekly 30-minute IV infusion, 50, 100, 150 mg/kg",at least 150 mg/kg/dose
same,apparent affinity to GAS6,GAS6,93-324 femtomolar
same,higher affinity than wild-type (WT) AXL,GAS6,approximately 200 fold
same,AXL signaled invasion and migration,highly metastatic cells,dramatically reducing AXL signaled invasion and migration
same,metastatic tumor weight and number,"[6]; PDA1-1 models, combined with gemcitabine",Significant reductions
same,fibrosis,[6]; combined with gemcitabine,substantially decreased
same,survival,[6]; combined with gemcitabine,prolonged
same,metastasis development,[6]; monotherapy,decrease in metastasis development
same,patients with Grade 4 or 5 adverse effects,"[7]; AVB-S6-500 related, N = 21",no patients
same,"AEs Leading to AVB-S6-500 Treatment Discontinuation, events",[7]; N = 21,fatigue and sepsis
same,AVB-S6-500-Related Deaths,[7]; N = 21,no AVB-S6-500 related deaths
same,AEs Leading to AVB-S6-500 Treatment Discontinuation,[7]; patients (% of N = 21),2
same,AEs of Special Interest (Infusion Related Reactions),[7]; patients (% of N = 21),3
same,Grade 3 Adverse Effects Related to AVB-S6-500,[7]; patients (% of N = 21),6
